Measured values as given in US20120172293A1 (Takeda / Millennium, published 2012).

Experiments:
[1] = biological target: human Y2 receptor (human) (UniProt P49146); test: cell-based or functional assay
[2] = biological target: human Y2 receptor (human) (UniProt P49146); test: RBA: displacement of [125I]-PYY from hY2R/CHO membranes

Chain of human Y2 receptor (human) (P49146 whole entry): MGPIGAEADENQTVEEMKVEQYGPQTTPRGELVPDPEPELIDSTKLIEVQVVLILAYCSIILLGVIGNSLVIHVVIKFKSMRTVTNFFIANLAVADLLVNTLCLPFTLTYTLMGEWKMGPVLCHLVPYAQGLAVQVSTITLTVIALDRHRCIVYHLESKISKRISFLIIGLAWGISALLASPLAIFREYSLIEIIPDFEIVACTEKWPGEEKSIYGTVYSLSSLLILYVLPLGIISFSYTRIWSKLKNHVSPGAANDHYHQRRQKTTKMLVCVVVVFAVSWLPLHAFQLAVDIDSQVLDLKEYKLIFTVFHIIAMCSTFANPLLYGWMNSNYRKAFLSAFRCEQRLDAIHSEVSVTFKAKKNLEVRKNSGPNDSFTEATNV

GBA EC50 Ratio ([35S]GTPγS binding) (EC50 compound/EC50 PYY(3-36)) [1] | IC50 Ratio (IC50 compound/IC50 PYY(3-36)) [2] | Substance
1.4 | 0.88 | Ac-[D-Pro24, Tyr(Me)26, Cha27,36, Aib28,31, Lys30]-PYY(23-36) (peptide)
1.7 | 1.1 | Ac-[D-Pro24, Pya(4)26, Cha27,36, Aib28,31, Lys(Me2)30]-PYY(23-36) (peptide)
1 | 0.31 | Ac-[D-Pro24, Pya(4)26, Cha27,36, Iva28,31, Lys30]-PYY(23-36) (peptide)
0.67 | 0.36 | Ac-[D-Pro24, Pya(4)26, Cha27,36, Iva28, Lys30, D-Iva31]-PYY(23-36) (peptide)
1.6 | 0.7 | Ac-[D-Pro24, Pya(4)26, Cha27,36, D-Iva28,31, Lys30]-PYY(23-36) (peptide)
0.86 | 1.1 | Ac-[D-Hyp24, Pya(4)26, Cha27,36, Aib28,31, Lys30]-PYY(23-36) (peptide)
1.2 | 0.91 | Ac-[D-Pro24, Pya(4)26, Cha27, Aib28,31, Lys30, Phe(3Me)36]-PYY(23-36) (peptide)
1.4 | 1.5 | Ac-[D-Hyp24, Iva25, Pya(4)26, Cha27,36, Aib28,31, Lys30]-PYY(23-36) (peptide)
3.9 | 10 | Ac-[D-Pro24, Pya(4)26, Phe(4F)27, Aib28,31, Lys30, Cha36]-PYY(23-36) (peptide)
1.5 | 1.2 | (5-carboxypentyl)carbamoyl-[D-Pro24, Pya(4)26, Cha27,36, Aib28,31, Lys30]-PYY(23-36) (peptide)
1.6 | 0.93 | 4-Pyridinecarbonyl-[D-Hyp24, Iva25, Pya(4)26, Cha27,36, Leu(Me)28, Lys30, Aib31]-PYY(23-36) (peptide)
1 | 0.86 | Ac-[D-Hyp24, Iva25,28, Pya(4)26, Cha27,36, Lys30, Aib31]-PYY(23-36) (peptide)
1.7 | 1.9 | 4-Imidazolecarbonyl-[Aib24,28,31, Iva25, Pya(4)26, Cha27,36, Lys30]-PYY(23-36) (peptide)
0.94 | 0.78 | [(1S)-1-Carboxyethyl]carbamoyl-[D-Pro24, Pya(4)26, Cha27,36, Aib28,31, Lys30]-PYY(23-36) (peptide)
1.2 | 0.33 | Ac-[D-Pro24, Pya(4)26, Cha27,36, Iva28, Lys30, Aib31]-PYY(23-36) (peptide)
0.98 | 1 | Ac-[D-Pro24, Pya(4)26, Cha27, Aib28,31, Lys30, Phe(2Me)36]-PYY(23-36) (peptide)
0.59 | 0.52 | Ac-[D-Pro24, Pya(4)26, Cha27, Aib28,31, Lys30, Phe(2,6-Me2)36]-PYY(23-36) (peptide)
1.5 | 0.97 | Ac-[D-Hyp24, Iva25, Pya(4)26, Cha27,36, Leu(Me)28, Lys30, Aib31]-PYY(23-36) (peptide)
1.1 | 3.4 | Ac-[D-Pro24, Pya(4)26, Cha27,36, D-Iva28, Lys30, Iva31]-PYY(23-36) (peptide)
1.2 | 0.96 | 3-Carboxypropionyl-[D-Pro24, Pya(4)26, Cha27,36, Aib28,31, Lys30]-PYY(23-36) (peptide)
3.9 | 3.8 | Ac-[D-Pro24, Pya(4)26, Ala(4Pip)27, Aib28,31, Lys30, Cha36]-PYY(23-36) later peak (peptide)
1.1 | 0.97 | Ac-[D-Pro24, Pya(4)26, Cha27,36, Aib28,31, Lys(Ac)30]-PYY(23-36) (peptide)
1.2 | 1.1 | Ac-[D-Pro24, Pya(4)26, Cha27,36, Aib28,31, Arg(Me)30]-PYY(23-36) (peptide)
1.4 | 0.96 | Ac-[D-Pro24, Pya(4)26, Cha27,36, Aib28,31, Nle30]-PYY(23-36) (peptide)
0.79 | 0.36 | Ac-[D-Pro24, Pya(4)26, Cha27,36, Aib28,31, Har30]-PYY(23-36) (peptide)

The next lines start with the substance.

Substance | GBA EC50 Ratio ([35S]GTPγS binding) (EC50 compound/EC50 PYY(3-36)) [1] | IC50 Ratio (IC50 compound/IC50 PYY(3-36)) [2]
Ac-[D-Pro24, Abu26, Cha27,36, Aib28,31, Lys30]-PYY(23-36) (peptide) | 0.98 | 2.3
4-Imidazolecarbonyl-[D-Hyp24, Iva25,28, Pya(4)26, Cha27,36, Lys30, Aib31]-PYY(23-36) (peptide) | 1.3 | 0.99
Ac-[D-Pro24, Pya(4)26, Nal(1)27, Aib28,31, Lys30, Cha36]-PYY(23-36) (peptide) | 1.7 | 2.9
Ac-[D-Pro24, Cit25, Pya(4)26, Cha27,36, Aib28,31, Lys30]-PYY(23-36) (peptide) | 2.2 | 2.8
4-Imidazolecarbonyl-[D-Hyp24, Iva25, Pya(4)26, Cha27,36, Leu(Me)28, Lys30, Aib31]-PYY(23-36) (peptide) | 1.4 | 0.75
Ac-[D-Pro24, Pya(4)26, Cha27,36, Aib28,31, Hse30]-PYY(23-36) (peptide) | 5.7 | 5.8
(2-amino-2-oxoethyl)carbamoyl-[D-Pro24, Pya(4)26, Cha27,36, Aib28,31, Lys30]-PYY(23-36) (peptide) | 0.74 | 1.2
Morpholinocarbonyl-[D-Pro24, Pya(4)26, Cha27,36, Aib28,31, Lys30]-PYY(23-36) (peptide) | 0.57 | 0.89
4-Imidazolecarbonyl-[D-Hyp24, Iva25, Pya(4)26, Cha27,36, αMePhe28, Lys30, Aib31]-PYY(23-36) (peptide) | 1 | 0.65
Ac-[D-Pro24, Pya(4)26, Cha27,36, D-Iva28, Lys30, Aib31]-PYY(23-36) (peptide) | 2.6 | 1.7
3-Carboxypropionyl-[D-Hyp24, Iva25, Pya(4)26, Cha27,36, Leu(Me)28, Lys30, Aib31]-PYY(23-36) (peptide) | 1.9 | 0.92
(3-Carboxypropyl)carbamoyl-[D-Hyp24, Iva25, Pya(4)26, Cha27,36, Leu(Me)28, Lys30, Aib31]-PYY(23-36) (peptide) | 1.7 | 0.57
[(1S)-1-Carboxy-2-(4-hydroxyphenyl)ethyl]carbamoyl-[D-Pro24, Pya(4)26, Cha27,36, Aib28,31, Lys30]-PYY(23-36) (peptide) | 1.2 | 0.95
Ac-[D-Pro24, Har25, Pya(4)26, Cha27,36, Aib28,31, Lys30]-PYY(23-36) (peptide) | 1.4 | 0.82
(Carboxymethyl)carbamoyl-[D-Pro24, Pya(4)26, Cha27,36, Aib28,31, Lys30]-PYY(23-36) (peptide) | 1.2 | 1.2
Ac-[D-Pro24, Pya(4)26, Cha27,36, Aib28,31, Ala(4-pip)30]-PYY(23-36) (peptide) | 0.8 | 0.72
(Tetrahydro-2H-pyran-4-yl)carbonyl-[D-Pro24, Pya(4)26, Cha27,36, Aib28,31, Lys30]-PYY(23-36) (peptide) | 0.71 | 1.1
4-Pyridinecarbonyl-[D-Hyp24, Iva25,28, Pya(4)26, Cha27,36, Lys30, Aib31]-PYY(23-36) (peptide) | 1.6 | 1.3
2-Methylbutanoyl-[D-Pro24, Pya(4)26, Cha27,36, Aib28,31, Lys30]-PYY(23-36) (peptide) | 0.78 | 0.54
Ac-[D-Pro24, Ala(4Pip)26, Cha27,36, Aib28,31, Lys30]-PYY(23-36) (peptide) | 1.5 | 1.2
Ac-[D-Pro24, Nar25, Pya(4)26, Cha27,36, Aib28,31, Lys30]-PYY(23-36) (peptide) | 1.8 | 1.1
4-Imidazolecarbonyl-[D-Hyp24, Iva25, Pya(4)26, Cha27,36, Aib28,31, Lys30]-PYY(23-36) (peptide) | 0.92 | 1.3
